Usually Kd stands for the equilibrium constant for the complex coming apart. The term koff denotes the first-order rate constant of dissociation. A high value points to a short-lived complex. One may read the kon as the second-order rate constant of association. A higher kon goes with fast association.

These results are taken from patent US20240132591A1 (PANDION OPERATIONS, published 2024).

The labels stand for the following.
B1: MIAB136 (antibody, human IgG1, kappa)
heavy: EVQLLESGGGLVQPGGSLRLSCAASGFTFSSYAMSWVRQAPGKGLEWISYISGDSGYTNYADSVKGRFTISRDNSKNTLYLQMNSLRAEDTAVYYCARDRPYYYYMDVWGKGTTVTVSSASTKGPSVFPLAPSSKSTSGGTAALGCLVKDYFPEPVTVSWNSGALTSGVHTFPAVLQSSGLYSLSSVVTVPSSSLGTQTYICNVNHKPSNTKVDKKVEPKSCDKTHTCPPCPAPEAAGAPSVFLFPPKPKDTLMISRTPEVTCVVVDVSHEDPEVKFNWYVDGVEVHNAKTKPREEQYNSTYRVVSVLTVLHQDWLNGKEYKCKVSNKALPAPIEKTISKAKGQPREPQVYTLPPSREEMTKNQVSLTCLVKGFYPSDIAVEWESNGQPENNYKTTPPVLDSDGSFFLYSKLTVDKSRWQQGNVFSCSVMHEALHNHYTQKSLSLSPGGGGGSAPTSSSTKKTQLQLEHLLLDLQMILNGINNYKNPKLTRMLTFKFYMPKKATELKHLQCLEEELKPLEEALNLAPSKNFHLRPRDLISDINVIVLELKGSETTFMCEYADETATIVEFINRWITFSQSIISTLT
light: DIQMTQSPSSLSASVGDRVTITCRASQSVSRSLAWYQQKPGKAPKLLIYAASSLQSGVPSRFSGSGSGTDFTLTISSLQPEDFATYYCQQYKSYPVTFGQGTKVEIKRTVAAPSVFIFPPSDEQLKSGTASVVCLLNNFYPREAKVQWKVDNALQSGNSQESVTEQDSKDSTYSLSSTLTLSKADYEKHKVYACEVTHQGLSSPVTKSFNRGEC
notes: HCDR1 germlined
B2: MIAB174 (antibody, human IgG1, kappa)
heavy: EVQLLESGGGLVQPGGSLRLSCAASGFTFSDYWMHWVRQAPGKGLEWISYISGDSGYTNYADSVKGRFTISRDNSKNTLYLQMNSLRAEDTAVYYCARDRPYYYYMDVWGKGTTVTVSSASTKGPSVFPLAPSSKSTSGGTAALGCLVKDYFPEPVTVSWNSGALTSGVHTFPAVLQSSGLYSLSSVVTVPSSSLGTQTYICNVNHKPSNTKVDKKVEPKSCDKTHTCPPCPAPEAAGAPSVFLFPPKPKDTLMISRTPEVTCVVVDVSHEDPEVKFNWYVDGVEVHNAKTKPREEQYNSTYRVVSVLTVLHQDWLNGKEYKCKVSNKALPAPIEKTISKAKGQPREPQVYTLPPSREEMTKNQVSLTCLVKGFYPSDIAVEWESNGQPENNYKTTPPVLDSDGSFFLYSKLTVDKSRWQQGNVFSCSVMHEALHNHYTQKSLSLSPGGGGGSAPTSSSTKKTQLQLEHLLLDLQMILNGINNYKNPKLTRMLTFKFYMPKKATELKHLQCLEEELKPLEEALNLAPSKNFHLRPRDLISDINVIVLELKGSETTFMCEYADETATIVEFINRWITFSQSIISTLT
light: DIQMTQSPSSLSASVGDRVTITCRASQSVSRSLAWYQQKPGKAPKLLIYAASSLQSGVPSRFSGSGSGTDFTLTISSLQPEDFATYYCQQYKSYPVTFGQGTKVEIKRTVAAPSVFIFPPSDEQLKSGTASVVCLLNNFYPREAKVQWKVDNALQSGNSQESVTEQDSKDSTYSLSSTLTLSKADYEKHKVYACEVTHQGLSSPVTKSFNRGEC
notes: also called MIAB174-001
B3: MIAB147 (antibody, human IgG1, kappa)
heavy: EVQLLESGGGLVQPGGSLRLSCAASGFTFSDFWMHWVRQAPGKGLEWISYISGDSGYTNYADSVKGRFTISRDNSKNTLYLQMNSLRAEDTAVYYCARDRPYYYYMDVWGKGTTVTVSSASTKGPSVFPLAPSSKSTSGGTAALGCLVKDYFPEPVTVSWNSGALTSGVHTFPAVLQSSGLYSLSSVVTVPSSSLGTQTYICNVNHKPSNTKVDKKVEPKSCDKTHTCPPCPAPEAAGAPSVFLFPPKPKDTLMISRTPEVTCVVVDVSHEDPEVKFNWYVDGVEVHNAKTKPREEQYNSTYRVVSVLTVLHQDWLNGKEYKCKVSNKALPAPIEKTISKAKGQPREPQVYTLPPSREEMTKNQVSLTCLVKGFYPSDIAVEWESNGQPENNYKTTPPVLDSDGSFFLYSKLTVDKSRWQQGNVFSCSVMHEALHNHYTQKSLSLSPGGGGGSAPTSSSTKKTQLQLEHLLLDLQMILNGINNYKNPKLTRMLTFKFYMPKKATELKHLQCLEEELKPLEEALNLAPSKNFHLRPRDLISDINVIVLELKGSETTFMCEYADETATIVEFINRWITFSQSIISTLT
light: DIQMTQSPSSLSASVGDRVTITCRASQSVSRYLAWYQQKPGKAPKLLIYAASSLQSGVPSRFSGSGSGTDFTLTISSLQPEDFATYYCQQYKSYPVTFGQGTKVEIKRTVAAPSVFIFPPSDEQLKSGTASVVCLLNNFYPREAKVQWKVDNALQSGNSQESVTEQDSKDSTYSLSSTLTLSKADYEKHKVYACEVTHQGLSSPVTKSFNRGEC
notes: also called MIAB147-001
B4: MIAB149 (antibody, human IgG1, kappa)
heavy: EVQLLESGGGLVQPGGSLRLSCAASGFTFSDFWMHWVRQAPGKGLEWISYISGDSGYTNYADSVKGRFTISRDNSKNTLYLQMNSLRAEDTAVYYCARDRPYYYYMDVWGKGTTVTVSSASTKGPSVFPLAPSSKSTSGGTAALGCLVKDYFPEPVTVSWNSGALTSGVHTFPAVLQSSGLYSLSSVVTVPSSSLGTQTYICNVNHKPSNTKVDKKVEPKSCDKTHTCPPCPAPEAAGAPSVFLFPPKPKDTLMISRTPEVTCVVVDVSHEDPEVKFNWYVDGVEVHNAKTKPREEQYNSTYRVVSVLTVLHQDWLNGKEYKCKVSNKALPAPIEKTISKAKGQPREPQVYTLPPSREEMTKNQVSLTCLVKGFYPSDIAVEWESNGQPENNYKTTPPVLDSDGSFFLYSKLTVDKSRWQQGNVFSCSVMHEALHNHYTQKSLSLSPGGGGGSAPTSSSTKKTQLQLEHLLLDLQMILNGINNYKNPKLTRMLTFKFYMPKKATELKHLQCLEEELKPLEEALNLAPSKNFHLRPRDLISDINVIVLELKGSETTFMCEYADETATIVEFINRWITFSQSIISTLT
light: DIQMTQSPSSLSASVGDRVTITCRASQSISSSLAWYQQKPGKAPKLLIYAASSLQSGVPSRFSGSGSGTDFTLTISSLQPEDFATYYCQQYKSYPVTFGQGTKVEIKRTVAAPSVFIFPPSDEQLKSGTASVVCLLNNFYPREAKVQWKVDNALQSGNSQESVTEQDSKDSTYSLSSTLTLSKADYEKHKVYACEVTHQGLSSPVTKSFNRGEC
notes: also called MIAB149-001
B5: MIAB146 (antibody, human IgG1, kappa)
heavy: EVQLLESGGGLVQPGGSLRLSCAASGFTFSDFWMHWVRQAPGKGLEWISYISGDSGYTNYADSVKGRFTISRDNSKNTLYLQMNSLRAEDTAVYYCARDRPYYYYMDVWGKGTTVTVSSASTKGPSVFPLAPSSKSTSGGTAALGCLVKDYFPEPVTVSWNSGALTSGVHTFPAVLQSSGLYSLSSVVTVPSSSLGTQTYICNVNHKPSNTKVDKKVEPKSCDKTHTCPPCPAPEAAGAPSVFLFPPKPKDTLMISRTPEVTCVVVDVSHEDPEVKFNWYVDGVEVHNAKTKPREEQYNSTYRVVSVLTVLHQDWLNGKEYKCKVSNKALPAPIEKTISKAKGQPREPQVYTLPPSREEMTKNQVSLTCLVKGFYPSDIAVEWESNGQPENNYKTTPPVLDSDGSFFLYSKLTVDKSRWQQGNVFSCSVMHEALHNHYTQKSLSLSPGGGGGSAPTSSSTKKTQLQLEHLLLDLQMILNGINNYKNPKLTRMLTFKFYMPKKATELKHLQCLEEELKPLEEALNLAPSKNFHLRPRDLISDINVIVLELKGSETTFMCEYADETATIVEFINRWITFSQSIISTLT
light: DIQMTQSPSSLSASVGDRVTITCRASQSVSSSLAWYQQKPGKAPKLLIYAASSLQSGVPSRFSGSGSGTDFTLTISSLQPEDFATYYCQQYKSYPVTFGQGTKVEIKRTVAAPSVFIFPPSDEQLKSGTASVVCLLNNFYPREAKVQWKVDNALQSGNSQESVTEQDSKDSTYSLSSTLTLSKADYEKHKVYACEVTHQGLSSPVTKSFNRGEC
notes: also called MIAB146-001
B6: MIAB145 (antibody, human IgG1, kappa)
heavy: EVQLLESGGGLVQPGGSLRLSCAASGFTFSDFWMHWVRQAPGKGLEWISYISGDSGYTNYADSVKGRFTISRDNSKNTLYLQMNSLRAEDTAVYYCARDRPYYYYMDVWGKGTTVTVSSASTKGPSVFPLAPSSKSTSGGTAALGCLVKDYFPEPVTVSWNSGALTSGVHTFPAVLQSSGLYSLSSVVTVPSSSLGTQTYICNVNHKPSNTKVDKKVEPKSCDKTHTCPPCPAPEAAGAPSVFLFPPKPKDTLMISRTPEVTCVVVDVSHEDPEVKFNWYVDGVEVHNAKTKPREEQYNSTYRVVSVLTVLHQDWLNGKEYKCKVSNKALPAPIEKTISKAKGQPREPQVYTLPPSREEMTKNQVSLTCLVKGFYPSDIAVEWESNGQPENNYKTTPPVLDSDGSFFLYSKLTVDKSRWQQGNVFSCSVMHEALHNHYTQKSLSLSPGGGGGSAPTSSSTKKTQLQLEHLLLDLQMILNGINNYKNPKLTRMLTFKFYMPKKATELKHLQCLEEELKPLEEALNLAPSKNFHLRPRDLISDINVIVLELKGSETTFMCEYADETATIVEFINRWITFSQSIISTLT
light: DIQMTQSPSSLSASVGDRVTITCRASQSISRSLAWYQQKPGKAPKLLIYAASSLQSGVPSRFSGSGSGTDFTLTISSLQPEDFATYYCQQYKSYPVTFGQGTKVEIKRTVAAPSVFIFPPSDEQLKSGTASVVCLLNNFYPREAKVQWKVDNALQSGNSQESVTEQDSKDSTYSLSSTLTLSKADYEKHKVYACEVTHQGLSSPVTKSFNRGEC
notes: also called MIAB145-001
B7: MIAB137 (antibody, human IgG1, kappa)
heavy: EVQLLESGGGLVQPGGSLRLSCAASGFTFSDFWMHWVRQAPGKGLEWVSAISGSGGSTYYADSVKGRFTISRDNSKNTLYLQMNSLRAEDTAVYYCARDRPYYYYMDVWGKGTTVTVSSASTKGPSVFPLAPSSKSTSGGTAALGCLVKDYFPEPVTVSWNSGALTSGVHTFPAVLQSSGLYSLSSVVTVPSSSLGTQTYICNVNHKPSNTKVDKKVEPKSCDKTHTCPPCPAPEAAGAPSVFLFPPKPKDTLMISRTPEVTCVVVDVSHEDPEVKFNWYVDGVEVHNAKTKPREEQYNSTYRVVSVLTVLHQDWLNGKEYKCKVSNKALPAPIEKTISKAKGQPREPQVYTLPPSREEMTKNQVSLTCLVKGFYPSDIAVEWESNGQPENNYKTTPPVLDSDGSFFLYSKLTVDKSRWQQGNVFSCSVMHEALHNHYTQKSLSLSPGGGGGSAPTSSSTKKTQLQLEHLLLDLQMILNGINNYKNPKLTRMLTFKFYMPKKATELKHLQCLEEELKPLEEALNLAPSKNFHLRPRDLISDINVIVLELKGSETTFMCEYADETATIVEFINRWITFSQSIISTLT
light: DIQMTQSPSSLSASVGDRVTITCRASQSVSRSLAWYQQKPGKAPKLLIYAASSLQSGVPSRFSGSGSGTDFTLTISSLQPEDFATYYCQQYKSYPVTFGQGTKVEIKRTVAAPSVFIFPPSDEQLKSGTASVVCLLNNFYPREAKVQWKVDNALQSGNSQESVTEQDSKDSTYSLSSTLTLSKADYEKHKVYACEVTHQGLSSPVTKSFNRGEC
notes: HCDR2 germlined

This assay has as its target T1, Human MAdCAM (human, UniProt Q13477 19-317, limits assumed).
T1 construct: also called huMAdCAM; human MAdCAM-1
T1 sequence (looked up): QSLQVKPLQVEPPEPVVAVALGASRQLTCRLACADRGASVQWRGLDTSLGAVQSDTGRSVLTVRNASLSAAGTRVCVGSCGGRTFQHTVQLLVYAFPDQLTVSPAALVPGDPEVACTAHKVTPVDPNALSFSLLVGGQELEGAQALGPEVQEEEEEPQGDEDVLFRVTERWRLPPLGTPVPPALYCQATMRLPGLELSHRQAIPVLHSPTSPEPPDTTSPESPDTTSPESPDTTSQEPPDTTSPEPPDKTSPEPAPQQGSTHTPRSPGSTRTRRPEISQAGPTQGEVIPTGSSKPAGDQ
The experiment in a line: BLI Octet, AHC capture.
With B1, the binding result is “no binding (tested: 150 nM)”.

Turning to B2, binding was characterised by a dissociation constant (Kd) of 21.8 nM, the koff was 0.00969 s⁻¹ and the kon amounted to 445000 M⁻¹ s⁻¹.

Regarding B3, the binding result is reported as “no binding (tested: 200 nM)”.

On to B4, for which binding was put at a Kd of 68.8 nM, the koff came out at 0.0259 s⁻¹ and the kon was 376000 M⁻¹ s⁻¹.

In turn, B5 yielded a Kd of 43.8 nM, a koff of 0.0197 s⁻¹ and a kon of 449000 M⁻¹ s⁻¹.

Regarding B6, the Kd stood at 22.2 nM, the koff was 0.00897 s⁻¹ and the kon is 405000 M⁻¹ s⁻¹.

The molecule B7 registered a Kd of 203 nM, a koff of 0.082 s⁻¹ and an on-rate (kon) of 404000 M⁻¹ s⁻¹.
